Reference: patent US20070009972A1, “Epidermal growth factor receptor polypeptides and antibodies” (priority 2005, published 2007)
Numbering of substitutions follows the chain as printed. One block for each molecule: values may come before it. *: point of attachment. Biotin = O=C1N[C@H]2[C@H](CS[C@H]2CCCCC(=O)*)N1; Ahx = NCCCCCC(=O)O

Assays:
EGFR = biological target: T1, EGFR (Homo sapiens, UniProt P00533); experiment: Cyclic polypeptide inhibition of EGFR phosphorylation in model HMEC cell system; assay type: cell-based; conditions: biotinylated cyclic polypeptide
T1 construct: tested them in a model HMEC cell system; endogenous in cells; host or cells: 184A1 human mammary epithelial cells (HMECs)
From the text: We selected amino acid sequences corresponding to fragments of Domain II and Domain IV of EGFR. The sequence of each polypeptide is shown in the first column of Table 1. The polypeptides were chosen based on their positions on the crystal structures of monomeric and dimeric EGFR (Burgess et al., Mol. Cell 12:541-552, 2003). Although Domain IV of EGFR is not resolved in the dimer crystal structure, it is believed that portions of Domain IV come into contact upon dimerization. […] We generated biotinylated cyclic polypeptides that included each sequence and tested them in a model HMEC cell system. The sequences of the biotinylated cyclic polypeptides are shown in the third column of Table 1. […] For the LYNPTTYQMD polypeptide, the different results obtained from polypeptide and polyclonal antisera inhibition could be due to differences in the quantitative details of the assays, or the polypeptide could have a lower affinity for the receptor than the polyclonal antisera does.

[1] = biological target: T2, Biotin-Aha-CMGENNTG-CONH2 (SEQ ID NO:10) (also: called cyclic, ring not described); experiment: yeast surface display screen of naive human library against the peptide (1 round MACS, 3 rounds FACS); clone isolated as specific binder
T2 construct: also called EGFR Domain IV (576-581) peptide
T2 peptide: {Biotin-Ahx}-CMGENNTG-NH2

[2] = biological target: T3, Biotin-GCRNVSRGRECG-CONH2 (SEQ ID NO:8) (not fully specified (bridges); printed as Biotin-GCRNVSRGRECG-; also: cyclic (ring type and places not given here)); experiment: as above
T3 construct: Biotinylated cyclic polypeptide; also called EGFR Domain IV (502-511) peptide
T3 peptide: Biotin-GCRNVSRGRECG-NH2

[3] = biological target: T4, Biotin-GCAHYIDGPHCG-CONH2 (SEQ ID NO:9) (not fully specified (bridges); printed as Biotin-GCAHYIDGPHCG-; also: cyclic (type of ring not given here)); experiment: as above
T4 construct: Biotinylated cyclic polypeptide; also called EGFR Domain IV (558-567) peptide
T4 peptide: Biotin-GCAHYIDGPHCG-NH2

[4] = biological target: T5, Biotin-GCLVWKYADAGCG-CONH2 (SEQ ID NO:11) (not fully specified (bridges); printed as Biotin-GCLVWKYADAGCG-; also: cyclic (ring type and places not given here)); experiment: as above
T5 construct: Biotinylated cyclic polypeptide; also called EGFR Domain IV (582-590) peptide
T5 peptide: Biotin-GCLVWKYADAGCG-NH2

[5] = biological target: T6, Biotin-GCGLYNPTTYQMDGCG-CONH2 (SEQ ID NO:7) (not fully specified (bridges); printed as Biotin-GCGLYNPTTYQMDGCG-; also: cyclic (type of ring not given here)); experiment: as above
T6 construct: Biotinylated cyclic polypeptide tested on HMECs; also called EGFR Domain II (245-254) peptide
T6 peptide: Biotin-GCGLYNPTTYQMDGCG-NH2

Molecule: CAHYIDGPHC [Biotin-GCAHYIDGPHCG-CONH2]
Peptide Inhibition (EGFR): Yes

Molecule: CRNVSRGREC [Biotin-GCRNVSRGRECG-CONH2]
Peptide Inhibition (EGFR): Yes

Molecule: LYNPTTYQMD [Biotin-GCGLYNPTTYQMDGCG-CONH2]
Peptide Inhibition (EGFR): No

Molecule: LVWKYADAG [Biotin-GCLVWKYADAGCG-CONH2]
Peptide Inhibition (EGFR): Yes

B1: SEQ ID NO 36 (other)
VH: QVQLQESGPGLVKPSETLSLTCTFSGGSIRSSSDYWGWVRQPPGKGLEWIGSISSSGSTYYNPSLKSRVTISVDTSRNQFSLRLSSVTAADTAIYYCARYNHYWYFDLWGRGTLVTVSSGILGSGGGSGGGGSGGGGSKRHSRSLQHSSQRLQETKSTSPAKPAKTLMMI
notes: also called VH clone isolated against MGENNT
binding result [1]: binds

B2: SEQ ID NO 20 (other)
VH: QVQLQQSGPGLVKPSQTLSLTCDISGDSVSSDSAAWNWIRLSPSRGLEWLGRTYYWSKWYTDYAVSVKSRITINPDTSKNQFSLQLNSVTPEDTAVYFCARERYCSSTSCYLDAFDIWGQGTMVTVSGILGSGGGGSGGGGSGGGGLQEF
binding result [2]: binds

B3: SEQ ID NO 28 (scFv)
scFv: QVQLQQSGPGLVKPSQTLSLTCAISGDSVSSNSAAWNWIRQSPSRGLEWLGRTYYRSKWYNEYAVSVKSRITINPDTSKNHFSLQLNSVTPEDTAVYYCAREIVGTPFDYWGQGTLVTVSSGILGSGGGGSGGGGSGGGGSDIRVTQSPSSLSASVGDRVTITCRTSQSASKYVNWYQQKPGKVPKLLIYAASSLQSGVPSRFSGSGSGTHFTLSISNLQPGDMGTYYCQQGYGTPLTFGGGTKLEIKSGF
binding result [3]: binds

B7: SEQ ID NO 38 (other)
VH: QITLKESGPTVVKPTQTLTLTCTFSGFSLSTSGVGVGWIRQPPGKALEWLALISWDDDKRYSPSLKSRLTITKDTSKNQVVLTMTNMDPVDTATYFCAHLNNFVDAIELRTGWCFDVWGRGTLVTVSGILGSGGGGSGGGGSGGGVLKLC
binding result [4]: binds

Now from value to molecule:

binding result [3]: binds
B4: SEQ ID NO 35 (scFv)
scFv: QVQLVESEGRLVKPGGSLRLSCVASGMTFNNAWMSWVRQAPGKGLEWVGRIRSESNGGTTDYAAPGKGRFTISRDDSKNTLYLQMNSLQIEDTAVYYCATDRGYSNSGNYYRHYWGQGTLVTVSSGILGSGGGGSGGGGSGGGGSDIRLTQSPSSLSASVGDRVTITCQASQDISNYLNWYQQKPGKAPKLLIYDASNLETGVPPRFSGSGSGTAFTFTISSLQPEDFATYYCQQYDNLPHTFGPGTKVDIKSGILEQKLISEEDL

binding result [1]: binds
B5: SEQ ID NO 37 (other)
VH: QVQLQESGPGLVKPSETLSLTCTVSGGSISNSDYYWGWIRQPPGKGLRWIGSINYYGTTYYNPSLKSRVAMSVDTSKNQFSLKLSSVTAADTAVYYCARRGANSWFFDLWGRGTLVTVSSGILGSGGGSGGGGSGGGGLQEF
notes: as for B1

binding result [2]: binds
B6: SEQ ID NO 21 (other)
VH: QVQLQQWGPGLLKPSETLSLTCGVSGGSLSGYYWSWIRQSPGKELEWIGEINQGGSTNYNPSLRSRVTISVDTSKKQLSLKVNSVTASDTAVYYCARETFRGSNCFDSWGQGTLVTVSSGILGSGGGIGGGGSGGGGLQEF

binding result [4]: binds
B8: SEQ ID NO 39 (other)
VH: B7 VH with N101I, C150R

binding result [5]: binds
B9: SEQ ID NO 18 (other)
VH: QVQLVQSEGGVVQPGRSLRLSCAASGFTFSSYAMHWVRQAPGKGLEWVAVISYDGSNKYYADSVKGRFTISRDNSKNTLYLQMNSLRAEDTAVYYCARDEGYYGSGCIDYWGQGTLVTVSSGILGSGGGSGGGGSGGGGLQEF

binding result [3]: binds
B10: SEQ ID NO 27 (scFv)
scFv: QITLKESGPTLVKPTQTLTLTCTFSGFSLSTNGVGVGWIRQPPGKALEWLALIYWNDDKRYSPSLKRRLTITKDTSKNQVVLTMTNMDPVDTATYYCAHRLLDSGYILPPTFDYWGQGTLVTVSSGILGSGGGGSGGGGSGGGGSEIVLTQSPGTLSLSPGERATLSCRASQSVNSGYLAWYQQKPGQAPRLLISAASSRATGIPDRFSGSGSGTDFTLTISRLEPEDFAVYYCQRYDTSRGFTFGPGTKVDIKSGF

binding result [5]: binds
B11: SEQ ID NO 19 (other)
VH: QVQLVQSEGGVVQPGRSLRLSCAAPGFTFSSYAMHWVRQAPGKGLEWVAVISYDGSNKYYADSVKGRFTISRDNSKNTLYLQMNSLRAEDTAVYYCARDEGYYGSGCIDYWGQGTLVTVSSGILGSGGGGSGGGGSGGGGLQEF
